Test results published in article doi:10.1101/2023.11.28.568993 (bioRxiv, 2023).

Biological target: the molecule itself
Test: SEC

B1: DNAJA2 (wild-type, class A J-domain protein) (natural protein)
chain: not shown
modifications: Alexa Fluor-488 label in the fluorescence anisotropy assays (site not stated)
With B1 as the protein, how does the “stoichiometry N” value read?
Its value is 2.
